Experimental data from patent US20230203177A1 (Bristol-Myers Squibb, published 2023).
Changes are numbered by the printed parent chain. Numbers in names are those of the source.

B1: M26 (HC-R67E / LC-K45Q) (antibody, human IgG1, kappa, V domains shown)
VH: QVQLVQSGAEVKKPGSSVKVSCKASGYAFTSYWMHWVRQAPGQGLEWMGQINPTTGRSQYNEKFKTEVTITADKSTSTAYMELSSLRSEDTAVYYCARWGLQPFAYWGQGTLVTVSS
VL: DIQMTQSPSFLSASVGDRVTITCKASQDVSTAVAWYQQKPGKAPQLLIYSASYRYTGVPSRFSGSGSGTDFTLTISSLQPEDFATYYCQQHYSTPWTFGGGTKVEIKR
notes: IgG1-P238K; also called HC10/LC2
B2: M58 (HC-R67E / LC-K45Q,R54Q,R61Q) (antibody, human IgG1, kappa, V domains shown)
VH: B1 VH
VL: B1 VL with R54Q, R61Q
notes: IgG1-P238K; also called HC10/LC4
B3: M34 (HC-K12Q,K13Q / LC-K45E) (antibody, human IgG1, kappa)
heavy: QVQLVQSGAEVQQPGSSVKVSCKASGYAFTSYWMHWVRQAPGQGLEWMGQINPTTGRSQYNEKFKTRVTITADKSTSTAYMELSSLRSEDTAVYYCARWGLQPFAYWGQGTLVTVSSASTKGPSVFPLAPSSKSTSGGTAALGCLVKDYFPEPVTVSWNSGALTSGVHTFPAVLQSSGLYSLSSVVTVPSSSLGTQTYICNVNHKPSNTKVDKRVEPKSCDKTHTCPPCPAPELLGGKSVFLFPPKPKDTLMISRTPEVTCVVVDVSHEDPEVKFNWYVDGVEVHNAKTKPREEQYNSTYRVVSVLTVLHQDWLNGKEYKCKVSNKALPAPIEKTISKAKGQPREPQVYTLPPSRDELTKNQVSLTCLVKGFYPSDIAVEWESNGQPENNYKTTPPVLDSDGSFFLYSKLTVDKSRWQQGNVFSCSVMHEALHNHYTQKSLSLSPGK
light: DIQMTQSPSFLSASVGDRVTITCKASQDVSTAVAWYQQKPGKAPELLIYSASYRYTGVPSRFSGSGSGTDFTLTISSLQPEDFATYYCQQHYSTPWTFGGGTKVEIKRTVAAPSVFIFPPSDEQLKSGTASVVCLLNNFYPREAKVQWKVDNALQSGNSQESVTEQDSKDSTYSLSSTLTLSKADYEKHKVYACEVTHQGLSSPVTKSFNRGEC
notes: IgG1-P238K; also called HC2/LC3
B4: M31 (HC-R67Q / LC-K45Q) (antibody, human IgG1, kappa, V domains shown)
VH: B1 VH with E67Q
VL: B1 VL
notes: IgG1-P238K; also called HC15/LC2
B5: M42 (HC-R67E / LC-K45E) (antibody, human IgG1, kappa, V domains shown)
VH: B1 VH
VL: B1 VL with Q45E
notes: IgG1-P238K; also called HC10/LC3
B6: M29 (HC-E46K,E62K / LC-K45Q) (antibody, human IgG1, kappa, V domains shown)
VH: B1 VH with E46K, E62K, E67R
VL: B1 VL
notes: IgG1-P238K; also called HC13/LC2
B7: M56 (HC-R38Q,K63Q,R67Q / LC-K45Q,R54Q,R61Q) (antibody, human IgG1, kappa, V domains shown)
VH: B1 VH with R38Q, K63Q, E67Q
VL: B1 VL with R54Q, R61Q
notes: IgG1-P238K; also called HC8/LC4
B8: M41 (HC-K63Q,R67E / LC-K45E) (antibody, human IgG1, kappa, V domains shown)
VH: B1 VH with K63Q
VL: B1 VL with Q45E
notes: IgG1-P238K; also called HC9/LC3
B9: M59 (HC-R57E / LC-K45Q,R54Q,R61Q) (antibody, human IgG1, kappa, V domains shown)
VH: B1 VH with R57E, E67R
VL: B1 VL with R54Q, R61Q
notes: IgG1-P238K; also called HC11/LC4
B10: M51 (HC-K12Q,K13Q,K23Q / LC-K45Q,R54Q,R61Q) (antibody, human IgG1, kappa, V domains shown)
VH: B1 VH with K12Q, K13Q, K23Q, E67R
VL: B1 VL with R54Q, R61Q
notes: IgG1-P238K; also called HC3/LC4
B11: M35 (HC-K12Q,K13Q,K23Q / LC-K45E) (antibody, human IgG1, kappa, V domains shown)
VH: B1 VH with K12Q, K13Q, K23Q, E67R
VL: B1 VL with Q45E
notes: IgG1-P238K; also called HC3/LC3
B12: M43 (HC-R57E / LC-K45E) (antibody, human IgG1, kappa, V domains shown)
VH: B1 VH with R57E, E67R
VL: B1 VL with Q45E
notes: IgG1-P238K; also called HC11/LC3
B13: M48 (HC-K63Q / LC-K45E) (antibody, human IgG1, kappa, V domains shown)
VH: B1 VH with K63Q, E67R
VL: B1 VL with Q45E
notes: IgG1-P238K; also called HC16/LC3
B14: M46 (HC-K74T / LC-K45E) (antibody, human IgG1, kappa, V domains shown)
VH: B1 VH with E67R, K74T
VL: B1 VL with Q45E
notes: IgG1-P238K; also called HC14/LC3
B15: M28 (HC-R57E,K74Q / LC-K45Q) (antibody, human IgG1, kappa, V domains shown)
VH: B1 VH with R57E, E67R, K74Q
VL: B1 VL
notes: IgG1-P238K; also called HC12/LC2
B16: M45 (HC-E46K,E62K / LC-K45E) (antibody, human IgG1, kappa, V domains shown)
VH: B1 VH with E46K, E62K, E67R
VL: B1 VL with Q45E
notes: IgG1-P238K; also called HC13/LC3
B17: M39 (HC-K23E / LC-K45E) (antibody, human IgG1, kappa)
heavy: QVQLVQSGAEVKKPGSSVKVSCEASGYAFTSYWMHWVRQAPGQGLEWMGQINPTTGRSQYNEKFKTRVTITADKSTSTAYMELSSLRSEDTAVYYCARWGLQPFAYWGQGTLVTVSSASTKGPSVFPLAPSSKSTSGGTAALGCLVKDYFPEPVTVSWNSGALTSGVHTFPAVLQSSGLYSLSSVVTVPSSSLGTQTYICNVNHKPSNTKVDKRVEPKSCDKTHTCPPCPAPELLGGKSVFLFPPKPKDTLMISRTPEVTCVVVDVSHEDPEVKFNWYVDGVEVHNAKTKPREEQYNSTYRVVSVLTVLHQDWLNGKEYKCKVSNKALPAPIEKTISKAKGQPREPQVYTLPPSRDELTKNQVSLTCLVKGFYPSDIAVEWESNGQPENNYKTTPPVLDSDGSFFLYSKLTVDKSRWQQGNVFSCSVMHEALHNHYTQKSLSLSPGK
light: B3 light
notes: IgG1-P238K; also called HC7/LC3
B18: M40 (HC-R38Q,K63Q,R67Q / LC-K45E) (antibody, human IgG1, kappa, V domains shown)
VH: B1 VH with R38Q, K63Q, E67Q
VL: B1 VL with Q45E
notes: IgG1-P238K; also called HC8/LC3
B19: M52 (HC-K12E / LC-K45Q,R54Q,R61Q) (antibody, human IgG1, kappa)
heavy: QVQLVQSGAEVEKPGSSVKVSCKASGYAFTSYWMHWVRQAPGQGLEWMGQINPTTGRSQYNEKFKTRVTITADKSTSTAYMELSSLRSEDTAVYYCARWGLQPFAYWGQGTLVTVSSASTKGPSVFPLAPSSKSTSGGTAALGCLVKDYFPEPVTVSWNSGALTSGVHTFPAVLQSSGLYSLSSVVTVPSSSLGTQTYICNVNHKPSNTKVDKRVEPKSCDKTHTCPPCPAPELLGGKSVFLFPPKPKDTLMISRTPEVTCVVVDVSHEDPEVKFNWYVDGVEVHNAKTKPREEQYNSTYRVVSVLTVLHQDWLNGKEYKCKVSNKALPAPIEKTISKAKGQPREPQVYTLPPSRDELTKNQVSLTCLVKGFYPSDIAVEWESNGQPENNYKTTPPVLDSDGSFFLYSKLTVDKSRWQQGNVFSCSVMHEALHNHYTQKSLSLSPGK
light: B3 light with E45Q, R54Q, R61Q
notes: IgG1-P238K; also called HC4/LC4
B20: M30 (HC-K74T / LC-K45Q) (antibody, human IgG1, kappa, V domains shown)
VH: B1 VH with E67R, K74T
VL: B1 VL
notes: IgG1-P238K; also called HC14/LC2
B21: M55 (HC-K23E / LC-K45Q,R54Q,R61Q) (antibody, human IgG1, kappa)
heavy: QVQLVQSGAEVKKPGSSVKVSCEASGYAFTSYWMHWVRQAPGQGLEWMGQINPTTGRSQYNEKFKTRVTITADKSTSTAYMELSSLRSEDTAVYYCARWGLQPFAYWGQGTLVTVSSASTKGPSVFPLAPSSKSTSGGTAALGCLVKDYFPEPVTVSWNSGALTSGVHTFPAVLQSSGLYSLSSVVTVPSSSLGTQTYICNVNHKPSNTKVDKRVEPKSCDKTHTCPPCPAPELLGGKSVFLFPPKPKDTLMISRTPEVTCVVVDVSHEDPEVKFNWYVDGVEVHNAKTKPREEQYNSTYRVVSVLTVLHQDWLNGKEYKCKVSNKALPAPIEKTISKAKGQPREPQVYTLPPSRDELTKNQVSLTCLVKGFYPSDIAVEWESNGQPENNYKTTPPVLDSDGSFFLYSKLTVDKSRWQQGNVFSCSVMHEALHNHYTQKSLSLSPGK
light: B3 light with E45Q, R54Q, R61Q
notes: IgG1-P238K; also called HC7/LC4
B22: M50 (HC-K12Q,K13Q / LC-K45Q,R54Q,R61Q) (antibody, human IgG1, kappa)
heavy: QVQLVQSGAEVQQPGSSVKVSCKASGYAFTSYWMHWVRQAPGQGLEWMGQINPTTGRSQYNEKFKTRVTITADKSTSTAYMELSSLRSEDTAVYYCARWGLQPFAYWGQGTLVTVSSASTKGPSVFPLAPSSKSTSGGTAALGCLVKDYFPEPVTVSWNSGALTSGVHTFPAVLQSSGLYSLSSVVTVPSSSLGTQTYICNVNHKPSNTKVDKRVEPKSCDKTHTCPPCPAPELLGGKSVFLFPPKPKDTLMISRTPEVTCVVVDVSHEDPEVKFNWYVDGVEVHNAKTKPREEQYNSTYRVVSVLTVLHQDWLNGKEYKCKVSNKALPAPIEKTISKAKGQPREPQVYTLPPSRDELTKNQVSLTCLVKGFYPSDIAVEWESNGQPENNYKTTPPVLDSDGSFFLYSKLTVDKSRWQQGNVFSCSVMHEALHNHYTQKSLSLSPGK
light: B3 light with E45Q, R54Q, R61Q
notes: IgG1-P238K; also called HC2/LC4
B23: M32 (HC-K63Q / LC-K45Q) (antibody, human IgG1, kappa, V domains shown)
VH: B1 VH with K63Q, E67R
VL: B1 VL
notes: IgG1-P238K; also called HC16/LC2
B24: M44 (HC-R57E,K74Q / LC-K45E) (antibody, human IgG1, kappa, V domains shown)
VH: B1 VH with R57E, E67R, K74Q
VL: B1 VL with Q45E
notes: IgG1-P238K; also called HC12/LC3
B25: M57 (HC-K63Q,R67E / LC-K45Q,R54Q,R61Q) (antibody, human IgG1, kappa, V domains shown)
VH: B1 VH with K63Q
VL: B1 VL with R54Q, R61Q
notes: IgG1-P238K; also called HC9/LC4
B26: M27 (HC-R57E / LC-K45Q) (antibody, human IgG1, kappa, V domains shown)
VH: B1 VH with R57E, E67R
VL: B1 VL
notes: IgG1-P238K; also called HC11/LC2

Biological target: T1, soluble human CD40 extracellular domain (human, UniProt P25942 21-193)
T1 construct: Produced in house; also called hCD40; soluble hCD40 extracellular domain
T1 sequence (P25942 21-193 limits assumed): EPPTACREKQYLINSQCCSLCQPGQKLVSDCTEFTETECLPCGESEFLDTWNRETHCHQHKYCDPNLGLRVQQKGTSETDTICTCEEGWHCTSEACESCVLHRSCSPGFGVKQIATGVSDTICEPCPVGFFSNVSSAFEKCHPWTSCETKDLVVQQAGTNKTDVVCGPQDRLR
Assay: SPR, Ab captured from supernatant on protein A, hCD40 ECD analyte
Description: The titer data (Table 21) were used to normalize the antibody concentration in each supernatant to 3 μg/ml, and these antibodies were captured out of the supernatants on a protein A CMS Series S sensor chip (GE Healthcare), and tested for binding to two concentrations (5 nM and 50 nM) of soluble hCD40 extracellular domain.
CD40 binding SPR of antibody supernatants: Surface plasmon resonance (SPR) studies were conducted on a BIAcore™ T200 instrument (GE Healthcare, Chicago Ill.). A Series S Protein A sensor chip (GE Healthcare, Chicago Ill.) was equilibrated with SPR running buffer of 10 mM NaPO₄, 130 mM NaCl, 0.05% tween 20, (PBS-T) pH 7.2 at 25° C. The 96 antibody supernatants were normalized to a concentration of 3 μg/ml by diluting with PBS-T using a PerkinElmer JANUS® G3 system (PerkinElmer, Akron, Ohio). After priming the system, the 3 μg/ml antibody samples were captured on the protein A surface for 30 s at 10 μl/min Binding of 50 nM and 500 nM human CD40 extracellular domain (produced in house) was evaluated using association time of 180 s at 30 μl/min, followed by a dissociation time of 180 s at 30 μl/min Regeneration between cycles was accomplished using two 15 s injections of 10 mM glycine pH 1.5. […] Data were analyzed using BIAcore™ T200 evaluation software by fitting to a 1:1 Langmuir model.

| Binder | Kd [nM] |
| --- | --- |
| B1 | 3 |
| B2 | 2.1 |
| B3 | 3.3 |
| B4 | 3.1 |
| B5 | 3 |
| B6 | 8.8 |
| B7 | 2.5 |
| B8 | 3.3 |
| B9 | 9.5 |
| B10 | 2.9 |
| B11 | 3.7 |
| B12 | 11.7 |
| B13 | 3.8 |
| B14 | 3.9 |
| B15 | 15.7 |
| B16 | 8.8 |
| B17 | 4.6 |
| B18 | 3.1 |
| B19 | 2.6 |
| B20 | 4 |
| B21 | 3.5 |
| B22 | 2.5 |
| B23 | 3.9 |
| B24 | 17.2 |
| B25 | 2.5 |
| B26 | 10.4 |
